We go through one molecule from patent publication US20260034234A1 (AGENSYS, published 2026).

In assay [1] the target is T1, 191P4D12 (aa 1-31, 147-346), mFc-C1C2, fusion protein (human, UniProt Q96NY8 1-346).
T1 construct: Expressed in 293T cells and purified; also called C1C2 fusion construct; not shown: murine Fc
T1 sequence: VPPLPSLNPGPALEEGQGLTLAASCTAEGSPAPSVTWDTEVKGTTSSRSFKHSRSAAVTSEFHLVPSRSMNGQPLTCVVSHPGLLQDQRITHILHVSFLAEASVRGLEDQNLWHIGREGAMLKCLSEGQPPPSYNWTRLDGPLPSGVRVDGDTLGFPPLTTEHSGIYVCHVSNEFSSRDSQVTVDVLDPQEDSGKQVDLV
Kind of assay: Western blot of purified mFc fusion proteins (non-reduced SDS-PAGE), probed with Ha22-2(2,4)6.1-biotin and streptavidin-HRP. As to the method: To further corroborate the results set forth in FIG. 10, a Western Blot analysis was performed. Briefly, the entire extracellular portion of 191P4D12 (full length), as well as specific domains set forth in Table VI were expressed in 293T cells as murine Fc fusion proteins and purified. Goat anti-mouse-HRP were used as a control.

In assay [2] the target is T2, 191P4D12 (aa 1-31, 147-510), C1C2, Rat1(E) expressing line (human, UniProt Q96NY8 1-510).
T2 construct: Deletion construct on the surface of Rat1(E) cells; also called C1C2 domain expressing cells
T2 sequence: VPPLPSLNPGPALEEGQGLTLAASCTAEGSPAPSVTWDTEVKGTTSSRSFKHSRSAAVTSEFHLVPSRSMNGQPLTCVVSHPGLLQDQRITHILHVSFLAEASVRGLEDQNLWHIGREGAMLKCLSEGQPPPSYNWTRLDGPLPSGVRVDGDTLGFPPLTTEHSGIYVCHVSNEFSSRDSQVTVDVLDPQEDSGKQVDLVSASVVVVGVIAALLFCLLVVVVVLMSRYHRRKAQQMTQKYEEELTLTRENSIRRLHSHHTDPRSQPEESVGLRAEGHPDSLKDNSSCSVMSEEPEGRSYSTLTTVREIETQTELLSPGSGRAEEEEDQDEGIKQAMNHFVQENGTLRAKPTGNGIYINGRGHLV
Kind of assay: FACS on Rat1(E) cells expressing the C1C2 construct [Continued].

Assay [3] addresses T3, Cynomolgus 191P4D12 (on PC3 cells) (cynomolgus monkey, UniProt A0A2K5WES1 32-510).
T3 construct: also called PC3-Cynomolgus-191P4D12; Cyno ortholog
T3 sequence: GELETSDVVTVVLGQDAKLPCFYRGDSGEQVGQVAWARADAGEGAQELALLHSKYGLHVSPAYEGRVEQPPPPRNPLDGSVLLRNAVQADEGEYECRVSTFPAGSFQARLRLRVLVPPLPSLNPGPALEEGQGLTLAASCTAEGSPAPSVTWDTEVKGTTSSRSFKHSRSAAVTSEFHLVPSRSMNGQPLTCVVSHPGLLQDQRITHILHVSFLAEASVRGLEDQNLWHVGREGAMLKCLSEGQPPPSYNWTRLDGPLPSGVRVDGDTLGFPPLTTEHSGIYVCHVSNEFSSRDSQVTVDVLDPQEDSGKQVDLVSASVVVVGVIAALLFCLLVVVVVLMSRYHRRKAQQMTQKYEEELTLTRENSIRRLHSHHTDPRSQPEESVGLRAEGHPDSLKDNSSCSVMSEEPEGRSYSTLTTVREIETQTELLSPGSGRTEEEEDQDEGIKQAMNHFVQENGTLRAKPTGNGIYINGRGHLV
Kind of assay: FACS on PC3 cells expressing the cyno ortholog. An excerpt:
The 191P4D12 protein of human, cynomolgus, rat and murine origin was overexpressed recombinantly in a PC3 cell line to determine cross-reactivity of Ha22-2(2,4)6.1 to these orthologs. It was shown that Ha22-2(2,4)6.1 strongly cross-reacts with cynomolgus and rat orthologs of 191P4D12 (FIG. 23).

Assay [4] addresses T4, purified recombinant 191P4D12 (ECD amino acids 1-348) (human, UniProt Q96NY8 32-348).
T4 construct: Range as printed
T4 sequence: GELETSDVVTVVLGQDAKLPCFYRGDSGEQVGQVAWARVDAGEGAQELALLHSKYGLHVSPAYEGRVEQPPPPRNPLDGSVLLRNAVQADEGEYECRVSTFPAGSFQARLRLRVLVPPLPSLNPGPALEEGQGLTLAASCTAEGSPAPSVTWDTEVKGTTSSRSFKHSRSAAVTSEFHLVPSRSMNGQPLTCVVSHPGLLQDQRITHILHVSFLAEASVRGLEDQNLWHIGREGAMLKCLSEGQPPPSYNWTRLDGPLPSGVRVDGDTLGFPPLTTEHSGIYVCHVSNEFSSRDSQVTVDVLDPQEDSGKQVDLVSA
Kind of assay: SPR (Biacore), antibody captured by anti-human Fc, 191P4D12 ECD as analyte. On the procedure:
The affinity of Ha22-2(2,4)6.1 MAb and Ha22-2(2,4)6.1vcMMAE to purified recombinant 191P4D12 (ECD amino acids 1-348) was performed by Surface Plasmon Resonance (SPR) (BIAcore). Briefly, goat-anti-human Fcγ polyclonal Abs (Jackson Immuno Research Labs, Inc.) were covalently immobilized on the surface of a CM5 sensor chip (Biacore). Purified Ha22-2(2,4)6.1 MAb or Ha22-2(2,4)6.1vcMMAE were then captured on the surface of said chip. On average, approximately 300 RUs of test Ha22-2(2,4)6.1 MAb or Ha22-2(2,4)6.1vcMMAE was captured in every cycle. Subsequently, a series of five (5) to six (6) dilutions of recombinant 191P4D12 (ECD amino acids 1-348) ranging from 1 nM to 100 nM was injected over such surface to generate binding curves (sensograms) that were processed and globally fit to a 1:1 interaction model using BIAevaluation 3.2 and CLAMP software (Myszka and Morton, 1998) (FIG. 22). Table V summarizes association and dissociation rate constants as well as affinities of Ha22-2(2,4)6.1 MAb and Ha22-2(2,4)6.1 vcMMAE to recombinant 191P4D12 (ECD amino acids 1-348).

B1: Ha22-2(2,4)6.1 MAb (antibody, human IgG1, kappa, V domains shown)
VH: EVQLVESGGGLVQPGGSLRLSCAASGFTFSSYNMNWVRQAPGKGLEWVSYISSSSSTIYYADSVKGRFTISRDNAKNSLSLQMNSLRDEDTAVYYCARAYYYGMDVWGQGTTVTVSS
VL: DIQMTQSPSSVSASVGDRVTITCRASQGISGWLAWYQQKPGKAPKFLIYAASTLQSGVPSRFSGSGSGTDFTLTISSLQPEDFATYYCQQANSFPPTFGGGTKVEIKR
notes: Fully human IgG1 kappa from XenoMouse; Used biotinylated in the Western blot; also called 191P4D12 MAb Ha22-2(2,4)6.1; Ha22-(2,4)6.1 MAb
As for B1, the binding result in assay [1] is given as “no binding”. The binding result in assay [2] is given as “no binding”. Also, the EC50 (in general, the concentration at which the effect is half-maximal) in assay [3] was 0.3 nM. Also, in assay [4], the equilibrium dissociation constant (Kd) (commonly the equilibrium constant for the complex coming apart) worked out at 16 nM; the dissociation rate constant (koff) (usually the rate constant with which the complex falls apart) is 0.0058 s⁻¹; the association rate constant (kon) (as a rule, a measure of how fast the partners come together) came to 380000 M⁻¹ s⁻¹.
